Assay results reported in paper PMC4642536, “Structural analysis of fungus-derived FAD glucose dehydrogenase” (Scientific Reports, 2015).

Biological target: the molecule itself
Test: SEC; size exclusion chromatography of GOx as comparison to AfGDH; elution volume corresponding to the dimer; conditions not shown (Supplementary Figure S4)

B1: glucose oxidase (enzyme, UniProt P13006 17-605, looked up)
chain: LPHYIRSNGIEASLLTDPKDVSGRTVDYIIAGGGLTGLTTAARLTENPNISVLVIESGSYESDRGPIIEDLNAYGDIFGSSVDHAYETVELATNNQTALIRSGNGLGGSTLVNGGTWTRPHKAQVDSWETVFGNEGWNWDNVAAYSLQAERARAPNAKQIAAGHYFNASCHGVNGTVHAGPRDTGDDYSPIVKALMSAVEDRGVPTKKDFGCGDPHGVSMFPNTLHEDQVRSDAAREWLLPNYQRPNLQVLTGQYVGKVLLSQNGTTPRAVGVEFGTHKGNTHNVYAKHEVLLAAGSAVSPTILEYSGIGMKSILEPLGIDTVVDLPVGLNLQDQTTATVRSRITSAGAGQGQAAWFATFNETFGDYSEKAHELLNTKLEQWAEEAVARGGFHNTTALLIQYENYRDWIVNHNVAYSELFLDTAGVASFDVWDLLPFTRGYVHILDKDPYLHHFAYDPQYFLNELDLLGQAAATQLARNISNSGAMQTYFAGETIPGDNLAYDADLSAWTEYIPYHFRPNYHGVGTCSMMPKEMGGVVDNAARVYGVQGLRVIDGSIPPTQMSSHVMTVFYAMALKISDAILEDYASMQ
notes: glucose oxidase (GOx) used as the comparison in size exclusion chromatography; probably the glycosylated enzyme; also called GOx
stoichiometry N: 2
